Key:
[1] = target: the molecule itself; assay: single-molecule fluorescence intensity distributions (TIRF) with labelling efficiencies from SEC absorption; intensity distributions of KIF5B∆-mCherry compared with mCherry-TRAK1 in the motility experiments; labelling efficiencies about 22% and about 88%
[2] = target: T1, mCherry-labelled full-length TRAK1 (human (by the printed accession …, UniProt Q9UPV9-1 1-953)); assay: single-molecule TIRF microscopy, two-colour co-movement on immobilised microtubules; KIF5B construct and 175 nM TRAK1 construct pre-incubated 10 min on ice, flushed onto bare immobilised microtubules in motility buffer with 1 mM Mg-ATP; room temperature; for the complexes traces of the mCherry-TRAK1 channel analysed; conditions: both partners purified
T1 construct: TRAK1 (trafficking kinesin protein 1), cDNA KIAA1042 from the Kazusa DNA Research Institute; 953 residues by the printed region 636-953; also called mCherry-TRAK1; trafficking kinesin protein 1; source: HEK293T cells, transfected, purified (StrepTactinXT, eluted by TEV cleavage of the N-terminal tag, Superose 6 SEC); not shown: mCherry, N-terminal, kept; TwinStrep-FLAG-Halo, N-terminal, cleaved
T1 sequence (looked up): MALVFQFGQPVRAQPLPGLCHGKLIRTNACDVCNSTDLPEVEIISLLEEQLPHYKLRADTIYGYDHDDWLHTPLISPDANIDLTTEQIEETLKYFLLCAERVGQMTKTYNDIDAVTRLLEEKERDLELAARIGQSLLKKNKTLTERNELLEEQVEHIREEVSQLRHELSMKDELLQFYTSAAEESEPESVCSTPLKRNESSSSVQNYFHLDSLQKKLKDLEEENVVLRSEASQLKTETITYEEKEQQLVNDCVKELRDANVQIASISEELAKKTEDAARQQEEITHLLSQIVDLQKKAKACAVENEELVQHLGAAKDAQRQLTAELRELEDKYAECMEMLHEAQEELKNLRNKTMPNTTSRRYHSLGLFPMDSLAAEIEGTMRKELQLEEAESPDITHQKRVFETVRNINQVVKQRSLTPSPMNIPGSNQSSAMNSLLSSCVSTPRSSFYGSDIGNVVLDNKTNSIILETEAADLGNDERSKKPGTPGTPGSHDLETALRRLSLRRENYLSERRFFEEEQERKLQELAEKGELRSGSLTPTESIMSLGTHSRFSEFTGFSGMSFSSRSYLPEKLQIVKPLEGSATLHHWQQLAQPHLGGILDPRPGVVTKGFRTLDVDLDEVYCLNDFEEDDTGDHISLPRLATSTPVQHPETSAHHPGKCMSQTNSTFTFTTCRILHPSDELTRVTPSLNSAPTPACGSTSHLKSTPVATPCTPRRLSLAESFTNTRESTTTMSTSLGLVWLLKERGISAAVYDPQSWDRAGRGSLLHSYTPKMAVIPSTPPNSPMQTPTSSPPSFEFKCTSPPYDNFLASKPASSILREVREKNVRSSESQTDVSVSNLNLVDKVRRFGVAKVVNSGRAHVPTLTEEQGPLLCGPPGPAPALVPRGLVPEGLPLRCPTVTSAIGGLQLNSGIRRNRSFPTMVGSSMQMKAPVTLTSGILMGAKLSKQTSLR

[3] = target: T1, mCherry-labelled full-length TRAK1; assay: TIRF microscopy, reconstituted transport of mitochondria on immobilised microtubules; 2 nM unlabeled KIF5B∆, 100 nM mCherry-TRAK1 and 10 µg isolated mitochondria-GFP (4T1 cells) pre-incubated on ice, flushed onto immobilised microtubules; room temperature; conditions: both partners purified

Binder	stoichiometry N [1]	binding result [2]	binding result [3]
GFP-labelled KIF5B∆ (KIF5B without the inhibitory domain, amino acids 906-963) (domain or fragment, human, UniProt P33176 1-905, looked up, Constitutively active construct; also called KIF5B∆-GFP; source: SF9 insect cells (FlexiBAC baculovirus), purified (Ni-NTA, 6xHis cleaved by 3C PreScission protease, second Ni-NTA); not shown: GFP, C-terminal, kept; 6xHis, C-terminal, cleaved) MADLAECNIKVMCRFRPLNESEVNRGDKYIAKFQGEDTVVIASKPYAFDRVFQSSTSQEQVYNDCAKKIVKDVLEGYNGTIFAYGQTSSGKTHTMEGKLHDPEGMGIIPRIVQDIFNYIYSMDENLEFHIKVSYFEIYLDKIRDLLDVSKTNLSVHEDKNRVPYVKGCTERFVCSPDEVMDTIDEGKSNRHVAVTNMNEHSSRSHSIFLINVKQENTQTEQKLSGKLYLVDLAGSEKVSKTGAEGAVLDEAKNINKSLSALGNVISALAEGSTYVPYRDSKMTRILQDSLGGNCRTTIVICCSPSSYNESETKSTLLFGQRAKTIKNTVCVNVELTAEQWKKKYEKEKEKNKILRNTIQWLENELNRWRNGETVPIDEQFDKEKANLEAFTVDKDITLTNDKPATAIGVIGNFTDAERRKCEEEIAKLYKQLDDKDEEINQQSQLVEKLKTQMLDQEELLASTRRDQDNMQAELNRLQAENDASKEEVKEVLQALEELAVNYDQKSQEVEDKTKEYELLSDELNQKSATLASIDAELQKLKEMTNHQKKRAAEMMASLLKDLAEIGIAVGNNDVKQPEGTGMIDEEFTVARLYISKMKSEVKTMVKRCKQLESTQTESNKKMEENEKELAACQLRISQHEAKIKSLTEYLQNVEQKKRQLEESVDALSEELVQLRAQEKVHEMEKEHLNKVQTANEVKQAVEQQIQSHRETHQKQISSLRDEVEAKAKLITDLQDQNQKMMLEQERLRVEHEKLKATDQEKSRKLHELTVMQDRREQARQDLKGLEETVAKELQTLHNLRKLFVQDLATRVKKSAEIDSDDTGGSAAQKQKISFLENNLEQLTKVHKQLVRDNADLRCELPKLEKRLRATAERVKALESALKEAKENASRDRKRYQQEVDRIKEA	2	binds	
unlabelled KIF5B∆ (domain or fragment, human, UniProt P33176 1-905, looked up, KIF5B, kinesin-1 heavy chain, human, amino acids 1-905; The methods describe only vectors with a C-terminal fluorescent tag; also called recombinant KIF5B∆; source: SF9 insect cells (all KIF5B constructs), purified) MADLAECNIKVMCRFRPLNESEVNRGDKYIAKFQGEDTVVIASKPYAFDRVFQSSTSQEQVYNDCAKKIVKDVLEGYNGTIFAYGQTSSGKTHTMEGKLHDPEGMGIIPRIVQDIFNYIYSMDENLEFHIKVSYFEIYLDKIRDLLDVSKTNLSVHEDKNRVPYVKGCTERFVCSPDEVMDTIDEGKSNRHVAVTNMNEHSSRSHSIFLINVKQENTQTEQKLSGKLYLVDLAGSEKVSKTGAEGAVLDEAKNINKSLSALGNVISALAEGSTYVPYRDSKMTRILQDSLGGNCRTTIVICCSPSSYNESETKSTLLFGQRAKTIKNTVCVNVELTAEQWKKKYEKEKEKNKILRNTIQWLENELNRWRNGETVPIDEQFDKEKANLEAFTVDKDITLTNDKPATAIGVIGNFTDAERRKCEEEIAKLYKQLDDKDEEINQQSQLVEKLKTQMLDQEELLASTRRDQDNMQAELNRLQAENDASKEEVKEVLQALEELAVNYDQKSQEVEDKTKEYELLSDELNQKSATLASIDAELQKLKEMTNHQKKRAAEMMASLLKDLAEIGIAVGNNDVKQPEGTGMIDEEFTVARLYISKMKSEVKTMVKRCKQLESTQTESNKKMEENEKELAACQLRISQHEAKIKSLTEYLQNVEQKKRQLEESVDALSEELVQLRAQEKVHEMEKEHLNKVQTANEVKQAVEQQIQSHRETHQKQISSLRDEVEAKAKLITDLQDQNQKMMLEQERLRVEHEKLKATDQEKSRKLHELTVMQDRREQARQDLKGLEETVAKELQTLHNLRKLFVQDLATRVKKSAEIDSDDTGGSAAQKQKISFLENNLEQLTKVHKQLVRDNADLRCELPKLEKRLRATAERVKALESALKEAKENASRDRKRYQQEVDRIKEA			binds
